Data as given in US20090286724A1, “AGGREGABLE GLP-1 ANALOGUE AND SUSTAINED-RELEASE PHARMACEUTICAL COMPOSITION” (CHUGAI SEIYAKU KABUSHIKI KAISHA, priority 2005, published 2009).
Ends that are not written are not given here.

Key:
[1] = Precipitation of peptide as zinc salt, peptide in supernatant by RP-HPLC; assay type: physicochemical; conditions: Z/P=15, peptide 1 mg/mL, 100 mM HEPES pH 7.4, 25° C., 18 hours
Method: Further, zinc chloride was dissolved in Milli-Q water to give a final concentration of 1 mg/mL. 1 M HEPES buffer (pH 7.4) was separately prepared. To the aqueous solution of peptide, the HEPES buffer, Milli-Q water and the aqueous solution of zinc chloride were sequentially added, whereby a sample was prepared such that the final volume was 30 mL, the final concentration of peptide was 1 mg/mL, the final concentration of HEPES (pH 7.4) was 100 mM, and the ratio of zinc chloride to Peptide 1 became Z/P=1. The resulting solution was let stand at room temperature (25° C.) for 18 hours. […] The solution was subjected to a centrifugation procedure (10,000 g, 3 min) and decantation, whereby the white precipitate and supernatant were separated.
Further, zinc chloride was dissolved in Milli-Q water to give a final concentration of 1 mg/mL. 1 M HEPES buffer (pH 7.4) was separately prepared. […] The resulting solution was let stand at room temperature (25° C.) for 18 hours. […] The solution was subjected to a centrifugation procedure (10,000 g, 3 min) and decantation, whereby the white precipitate and supernatant were separated.

[2] = In vitro release test of GLP-1 from Zinc/GLP-1 complex; assay type: physicochemical; conditions: PBS pH 7.4, 37° C.
Method: The quantification of GLP-1 analogue was carried out using RP-HPLC.
400 μg of each of WT-GLP-1 and GLP-1 analogue (Peptide 1) was dissolved in a 1 mM HCl solution (200 μL, pH: 2.8) containing 2 mg/mL zinc chloride. 100 μL of each of the resulting solutions was added to E-tube and diluted with a 1 mM HCl solution, whereby a 1 mg/mL solution was prepared. Then, 20 μL of PB (pH: 8.9, 100 mM) was added thereto, whereby a complex of Zinc/GLP-1 was formed. After the resulting mixture was centrifuged at 15,000 rpm for 5 minutes, the supernatant was removed, whereby a Zinc/GLP-1 complex was obtained.
PBS (0.5 mL, pH: 7.4) was added to E-tube containing the Zinc/GLP-1 complex at 37° C. The E-tube was centrifuged at different time points, and the supernatant was sampled, and 0.5 mL of PBS was freshly added thereto. 20 μL of 0.2 M HCl was added to 200 μL of the sample, and quantification was carried out by RP-HPLC.

[3] = peptide 100 μg/mL, 100 mM HEPES pH 7.4, 25° C., 18 hours
Method: Further, zinc chloride was dissolved in Milli-Q water to give a final concentration of 0.1 mg/mL. 1 M HEPES (N-[2-hydroxyethyl]piperazine-N′-[2-ethanesulfonic acid]) buffer (pH 7.4) was separately prepared. To each of the aqueous solutions of peptide, the HEPES buffer, Milli-Q water and the aqueous solution of zinc chloride were sequentially added, whereby samples were prepared such that the final volume was 1 mL, the final concentration of peptide was 100 μg/mL, the final concentration of HEPES (pH 7.4) was 100 mM, and the ratio of zinc chloride to the mole number of peptide became various ratios (Z/P=0 to 30). These samples were let stand at room temperature (25° C.) for 18 hours. Each mixture was centrifuged (10,000 g, 3 min), and the concentration of peptide in the supernatant was determined by RP-HPLC.

[4] = Evaluation for aggregability by stirring in PBS (absorbance at 350 nm, monomer by RP-HPLC); assay type: physicochemical; conditions: 1 mg/mL in PBS
Method: Each of the GLP-1 analogue and WT-GLP-1 in Example 1 was dissolved in PBS at a concentration of 1 mg/mL, and the amount of monomer was determined by RP-HPLC. 450 μL of each of the same solutions was placed into a glass vial along with a stirring bar, and the solution was stirred with a stirrer at room temperature for 20 hours. After stirring, the absorbance of the solution at 350 nm was determined (DU640, manufactured by Beckman). As for the supernatant after centrifugation, the monomer quantification by RP-HPLC and CD measurement (J-725, manufactured by Jasco Co.) were carried out.
System: NanoSpace SI-2 (manufactured by Shiseido Co., Ltd.)
Column: Capcell PAK C18, 1 mm×75 mm (manufactured by Shiseido Co., Ltd.)
Eluent A: water/acetonitrile/TFA=949/50/1
Eluent B: water/acetonitrile/TFA=50/949/1
Elution method: Gradient from 80/20 to 20/80 (Eluent A/Eluent B)
The aggregability of Peptide 3 was evaluated in the same manner as the method shown in Example 2.

Human GLP-1 receptor = Human GLP-1 receptor (human, UniProt P43220); test: cell-based or functional assay

## CC[C@H](C)[C@H](NC(=O)[C@H](Cc1ccccc1)NC(=O)[C@H](CCC(=O)O)NC(=O)[C@H](CCCCN)NC(=O)[C@H](C)NC(=O)[C@H](C)NC(=O)[C@H](CCC(N)=O)NC(=O)CNC(=O)[C@H](CCC(=O)O)NC(=O)[C@H](CC(C)C)NC(=O)[C@H](Cc1ccc(O)cc1)NC(=O)[C@H](CO)NC(=O)[C@H](CO)NC(=O)[C@@H](NC(=O)[C@H](CC(=O)O)NC(=O)[C@H](CO)NC(=O)[C@@H](NC(=O)[C@H](Cc1ccccc1)NC(=O)[C@@H](NC(=O)CNC(=O)[C@H](CCC(=O)O)NC(=O)[C@H](C)NC(=O)[C@@H](N)Cc1c[nH]cn1)[C@@H](C)O)[C@@H](C)O)C(C)C)C(=O)N[C@@H](C)C(=O)N[C@@H](Cc1c[nH]c2ccccc12)C(=O)N[C@@H](CC(C)C)C(=O)N[C@H](C(=O)N[C@@H](CCCCN)C(=O)NCC(=O)N[C@@H](CCCNC(=N)N)C(=O)NCC(=O)O)C(C)C [WT, GLP-1(7-37)]
[1]
  peptide precipitated as a zinc salt: 95.7%
[2]
  release observed until day: 14 days

## HGEGTFTSDVSSYLEGQAAKEFIRWLVKGRG [Peptide 1, [Gly^8]-[Arg^30]-GLP-1(7-37)]
[3]
  ratio of added zinc to peptide (Z/P) when the solubility was the lowest: around 1

## Peptide 3: comparative GLP-1 analogue with an isoelectric point nearly equal to that of Peptide 1 (HGEGTFTSDVKSYLEGQAAKEFIAWLVKGRG)
[4]; stirred 20 hours
  aggregability compared with WT-GLP-1: an increase in the aggregability compared with that of WT-GLP-1 was not observed
[4]; stirred at room temperature for 20 hours
  UV 350 nm Absorbance: 0.06
[4]; stirred at room temperature for 20 hours, supernatant after centrifugation
  RP-HPLC Amount of residual monomer (%): 95%

## HGEGTFTSDVSSYLEGQAAKEFIRWLVKGRG [[Gly^8]-[Arg^30]-GLP-1(7-37)]
Human GLP-1 receptor
  EC50 value for cAMP production: 0.0902 nM
